# Data taken from paper PMC3093129 (Biochemistry, 2011).
# B1: Liprin-β2 coiled-coil mutant C145S (complete coiled-coil construct, residues S100 through E315) (domain or fragment, human)
# chain: MEKTRSAASNETYQERLARLEGDKESLILQVSVLTDQVEAQGEKIRDLEVSLEGHQVKLNAAEEMLQQELLSRTSLETQKLDLMTEVSELKLKLVGMEKEQREQEEKQRKAEELLQELRHLKIKVEELENERNQYEWKLKATKAEVAQLQEQVALKDAEIERLHSQLSRTAALHSESHTERDQEIQRLKMGMETLLLANEDKDRRIEELTGLLNQYRKVKE
# Target: the molecule itself
# Assay: AUC
protein,measurement,value
B1,stoichiometry N,2
